Laboratory results published in article PMC11865060, “Novel human single-domain antibodies exert potent anti-tumor activity by targeting EGF-like repeat epitope of EpCAM” (Frontiers in Pharmacology, 2025).

Key:
[1] = biological target: T1, EpCAM complete extracellular domain protein (Homo sapiens (assumed), UniProt P16422); test: ELISA; 0.2 μg of antigen coated per well at 4°C overnight; purified sdAb at 1 μg/mL, RT 1 h; detection with HRP-conjugated protein A, absorbance at 450 nm; conditions: both partners purified
T1 construct: Epithelial cell adhesion molecule (EpCAM), complete extracellular domain, bought; Commercial protein; no catalogue number, limits or tags printed; source: bought: Shanghai Bootech BioSci. and Technol

[2] = biological target: T2, EpCAM on DU145, PC3 and MCF-7 cancer cells (Homo sapiens (DU145, PC3, MCF-7), UniProt P16422); test: flow cytometry on cells; cells (1 × 10^6/mL) incubated with the sdAbs at 4°C for 1 h; detection with FITC-conjugated protein A; 293T and 3T3 cells as negative controls; conditions: one partner purified
T2 construct: Epithelial cell adhesion molecule (EpCAM), endogenous on the three EpCAM+ human cancer cell lines DU145, PC3 and MCF-7; also called Epithelial cell adhesion molecule; source: endogenous, on DU145, PC3 and MCF-7 cells
T2 sequence (P16422 24-314): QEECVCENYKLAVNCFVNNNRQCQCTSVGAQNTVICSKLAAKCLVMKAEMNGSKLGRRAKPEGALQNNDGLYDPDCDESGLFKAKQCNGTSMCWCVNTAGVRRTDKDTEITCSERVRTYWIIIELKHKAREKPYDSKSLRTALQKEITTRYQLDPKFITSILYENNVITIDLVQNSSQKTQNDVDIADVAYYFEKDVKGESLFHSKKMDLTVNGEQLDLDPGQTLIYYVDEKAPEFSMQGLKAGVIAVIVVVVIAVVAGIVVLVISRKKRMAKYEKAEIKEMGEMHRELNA

T1 sequence (P16422 24-265): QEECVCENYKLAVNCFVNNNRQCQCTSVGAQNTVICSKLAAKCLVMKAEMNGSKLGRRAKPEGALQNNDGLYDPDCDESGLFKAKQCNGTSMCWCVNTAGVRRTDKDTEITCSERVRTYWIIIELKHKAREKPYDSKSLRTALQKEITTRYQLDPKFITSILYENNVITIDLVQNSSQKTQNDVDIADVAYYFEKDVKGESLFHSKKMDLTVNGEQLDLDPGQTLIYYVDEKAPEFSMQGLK

Row | Binder | binding result [1] | binding result [2]
1 | aEP3B2 (VHH, fully human VH single-domain antibody from a phage library (Source BioScience); Human VH-only sdAb (not camelid), not Fc-fused; cloned into pET-22b by Not I and Nco I sites; also called anti-EpCAM sdAb aEP3B2; source: E. coli BL21 (DE3), purified (Ni-NTA)) VHH: QVQLLESGGGLVQPGGSLRLSCAASGDRVSYKFMAWVRQAPGKGLEWVSSIRGNDGSTYYADSVKGRFTISRDNSKNTLYLQMNSLRAEDTAVYYCARKGKRHYELPYWGQGTLVTVSS | binds | binds
2 | aEP3D4 (VHH, fully human VH single-domain antibody from a phage library (Source BioScience); Human VH-only sdAb (not camelid), not Fc-fused; cloned into pET-22b by Not I and Nco I sites; also called anti-EpCAM sdAb aEP3D4; source: E. coli BL21 (DE3), purified (Ni-NTA)) VHH: QVQLLESGGGLVQPGGSLRLSCAASGVKFSNHDMTWVRQAPGKGLEWVSAINSGGGSTYYADSVKGRFTISRDNSKNTLYLQMNSLRAEDTAVYYCARMGRQARVPHHMRFWGQGTLVTVSS | binds | binds
3 | aEP4D11 (VHH, fully human VH single-domain antibody from a phage library (Source BioScience); Human VH-only sdAb (not camelid), not Fc-fused; cloned into pET-22b by Not I and Nco I sites; also called anti-EpCAM sdAb aEP4D11; source: E. coli BL21 (DE3), purified (Ni-NTA)) VHH: QVQLLESGGGLVQPGGSLRLSCAASGVKIIPKSMAWVRQAPGKGLEWVSTIETADGSTYYADSVKGRFTISRDNSKNTLYLQMNSLRAEDTAVYYCASVSRSRTNSLKSWGQGTLVTVSS | binds | binds
4 | aEP4G2 (VHH, fully human VH single-domain antibody from a phage library (Source BioScience); Human VH-only sdAb (not camelid), not Fc-fused; cloned into pET-22b by Not I and Nco I sites; also called anti-EpCAM sdAb aEP4G2; source: E. coli BL21 (DE3), purified (Ni-NTA)) VHH: QVQLLESGGGLVQPGGSLRLSCAASGFTFSYNNMAWVRQAPGKGLEWVSAIEGKDGSTYYADSVKGRFTISRDNSKNTLYLQMNSLRAEDTAVYYCARRKGRTEKLSYWGQGTLVTVSS | binds | binds
5 | aEP5A5 (VHH, fully human VH single-domain antibody from a phage library (Source BioScience); Human VH-only sdAb (not camelid), not Fc-fused; cloned into pET-22b by Not I and Nco I sites; also called anti-EpCAM sdAb aEP5A5; source: E. coli BL21 (DE3), purified (Ni-NTA)) VHH: QVQLLESGGGLVQPGGSLRLSCAASGVRFSNEVMAWVRQAPGKGLEWVSGIEMKNGSTYYADSVKGRFTISRDNSKNTLYLQMNSLRAEDTAVYYCASWGHSRRQQSKFNSWGQGTLVTVSS | – | binds
